Measurements reported in patent US20260242485A1 (LEPU BIOPHARMA, published 2026).

T1: human CD32B expressed on CHO-K1 cells (human, UniProt P31994 43-310)
T1 construct: whole, on cells; also called hCD32B
T1 sequence (looked up): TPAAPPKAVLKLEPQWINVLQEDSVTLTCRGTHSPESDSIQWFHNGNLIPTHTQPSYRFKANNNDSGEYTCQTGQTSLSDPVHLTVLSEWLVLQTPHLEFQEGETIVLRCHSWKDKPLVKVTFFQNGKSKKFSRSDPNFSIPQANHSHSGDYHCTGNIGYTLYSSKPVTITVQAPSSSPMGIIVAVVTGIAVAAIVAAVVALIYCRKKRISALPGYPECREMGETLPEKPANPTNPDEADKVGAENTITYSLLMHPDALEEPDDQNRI


Legend:
[1] = target: T1, human CD32B expressed on CHO-K1 cells; test: flow cytometry, CHO-K1-hCD32B cells, geometric mean
Procedure: (§1) In order to evaluate the binding activity of the chimeric mAbs to human CD16A expressed on cells, cell-based binding assay was employed as followed. […] The antibody dilutions were incubated with 1×10⁵ indicated cells in the 96-well microplate for one hour at 4° C. The antibodies binding to the antigen on the cell surface were detected with PE fluorophore-conjugated anti-human IgG Fc secondary antibodies (ThermoFisher scientific, Cat. No. 12-4998-82) at a dilution rate of 1:1000. Cells were analyzed by flow cytometer LSRFortessa Cell Analyzer (BD Biosciences). Data were analyzed with Flowjo 10.0 software. The graph and statistics analysis were generated with four-parameter nonlinear regression curve fit in Graphpad Prism 9 software.
(§2) To exclude the non-specific binding of the CD16A chimeric antibody to human CD16B and CD32B expressed on cells, cell-based binding assay was performed as described above. Firstly, CHO-K1 cells were stably transferred with one human CD16B spliced isoform hCD16B-NA1 and human CD32B. Then, the cells were incubated with the indicated concentrations of CD16A chimeric antibodies.

[2] = target: T2, human CD16B-NA1 expressed on CHO-K1 cells (human, UniProt O75015 17-200); test: flow cytometry, CHO-K1-hCD16B-NA1 cells, geometric mean
T2 construct: whole, on cells; also called hCD16B-NA1; CHO-K1-hCD16B-NA1
T2 sequence (O75015 other isoform, or with tags, fused parts or gaps): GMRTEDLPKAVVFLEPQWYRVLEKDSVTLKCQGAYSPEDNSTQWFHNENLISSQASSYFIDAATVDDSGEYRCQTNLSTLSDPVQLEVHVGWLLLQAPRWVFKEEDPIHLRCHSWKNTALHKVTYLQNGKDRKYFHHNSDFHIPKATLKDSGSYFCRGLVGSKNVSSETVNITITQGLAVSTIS
Procedure: as §1, §2

[3] = target: T3, human CD16A-158F expressed on CHO-K1 cells (human, UniProt P08637 17-254); test: flow cytometry on antigen-expressing CHO-K1 cells
T3 construct: whole, on cells
T3 sequence (P08637 17-254): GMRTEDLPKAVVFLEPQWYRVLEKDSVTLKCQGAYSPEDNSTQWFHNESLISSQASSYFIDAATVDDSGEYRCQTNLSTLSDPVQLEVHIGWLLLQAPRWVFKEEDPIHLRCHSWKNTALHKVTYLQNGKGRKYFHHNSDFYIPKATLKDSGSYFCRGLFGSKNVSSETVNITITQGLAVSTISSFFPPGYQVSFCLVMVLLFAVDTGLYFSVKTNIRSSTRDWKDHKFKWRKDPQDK
Procedure: as §1
(§3) CHO-K1 cells stably expressing cynomolgus CD16 were used in the following test.

[4] = target: T4, human CD16A-158V expressed on CHO-K1 cells (human, UniProt P08637 17-254); test: flow cytometry on antigen-expressing CHO-K1 cells
T4 construct: whole, on cells; also called hCD16A-158V; CHO-K1-hCD16A-158V
T4 sequence (P08637 17-254 F176V): as the sequence (P08637 17-254) above, with F160V counted along it
Procedure: as §1, §3

[5] = target: T5, human CD16B-NA2 ECD his tag protein (human, UniProt O75015 17-200); test: ELISA, hCD16B-NA2-his coated at 2 ug/mL, OD450
T5 construct: extracellular domain; Bought protein; also called hCD16B-NA2-his; hCD16B-NA2 protein
T5 sequence (O75015 17-200 N65S limits assumed): as the sequence (O75015 other isoform, or with tags, fused parts or gaps) above, with R20S, N49S, D66N, V90I counted along it
Procedure: (§4) In order to determine the binding ability of the chimeric Abs to human CD16A protein, ELISA-based binding assay was performed as followed. […] The mixture was incubated for 1 hour at room temperature (RT). The primary antibody was recognized by a detective antibody against human IgG Fc which was conjugated with horseradish peroxidase (HRP) (Jackson Immuno, Cat. No. 109-035-008). Tetramethylbenzidine (TMB), a substrate of HRP, was added to the wells to visualize the binding signal. After sufficient color development, stop solution was added to the wells. The absorbance of the signal was detected at 450 nm with Envision multilabel plate readers (PerkinElemer). The graph and statistics analysis were generated with four-parameter nonlinear regression curve fit in Graphpad Prism 9 software.
(§5) In order to determine the binding ability of the chimeric Abs to human CD16B protein, ELISA binding assay was performed as previously described. Three spliced isoforms of CD16B including human CD16B-NA1 ECD his tag protein (hCD16B-NA1-his, Acro Bio, Cat: No. CDB-H5227), human CD16B-NA2 ECD his tag protein (hCD16B-NA2-his, Acro Bio, Cat: No. CDB-H82Ea) and human CD16B-SH-his protein, were used as the coating antigens at 2 μg/mL.

[6] = target: T6, hCD16A-158V-his protein (human, UniProt P08637 17-208); test: SPR (Biacore 8K), antibody captured on Protein A chip, antigen at 50 nM
T6 construct: extracellular domain; Bought protein; also called human CD16A-158V-his; Human CD16A-158V (protein)
T6 sequence (P08637 17-208 F176V): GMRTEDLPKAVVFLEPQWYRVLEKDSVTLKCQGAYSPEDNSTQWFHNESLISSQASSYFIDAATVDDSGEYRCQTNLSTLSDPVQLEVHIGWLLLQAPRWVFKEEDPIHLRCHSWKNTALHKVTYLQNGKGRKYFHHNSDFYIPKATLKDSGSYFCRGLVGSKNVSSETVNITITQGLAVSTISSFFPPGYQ
Procedure: (§6) The binding affinity of the chimeric antibodies to human CD16A was determined with Biacore™. Briefly, the antibodies were captured with a Protein A chip. […] The antigen was allowed to dissociate for 500 s. The experiment was carried out on a Biacore™ 8K. Data analysis was carried out using Biacore™ 8K evaluation software.

[7] = target: T7, hCD16A-158F-his protein (human, UniProt P08637 17-208); test: as above
T7 construct: Bought protein
T7 sequence (P08637 17-208 limits assumed): as the sequence (P08637 17-208 F176V) above, with V160F counted along it
Procedure: as §6

[8] = target: T8, human CD16B-NA1 ECD his tag protein (human, UniProt O75015 17-200); test: ELISA, hCD16B-NA1-his coated at 2 ug/mL, OD450
T8 construct: extracellular domain; Bought protein; also called hCD16B-NA1-his; hCD16B-NA1 protein
T8 sequence (O75015 other isoform, or with tags, fused parts or gaps limits assumed): as the sequence (O75015 other isoform, or with tags, fused parts or gaps) above
Procedure: as §4, §5

[9] = target: T6, hCD16A-158V-his protein; test: ELISA, plate-coated his-tagged antigen 2 ug/mL
Procedure: as §4
(§7) In order to determine the cross reactivity of the chimeric Abs to cynomolgus CD16, ELISA binding assay was performed as described above. Recombinant cyno CD16 ECD his tag protein (cynoCD16-his, Acro Bio, Cat. No. FC6-C52H9) was used as the coating antigen at 2 μg/mL.

[10] = target: T7, hCD16A-158F-his protein; test: ELISA, plate-coated his-tagged antigen 2 ug/mL
Procedure: as §4, §7

Row | Binder | binding result [1] | binding result [2] | EC50 [3] [pM] | EC50 [4] [pM] | binding result [5] | Kd [6] [pM] | koff [6] [s⁻¹] | kon [6] [M⁻¹ s⁻¹] | Kd [7] [pM] | koff [7] [s⁻¹] | kon [7] [M⁻¹ s⁻¹] | binding result [8] | EC50 [9] [pM] | EC50 [10] [pM]
1 | 37B3G11-hIgG1 LALAPG (antibody, also called 37B3G11 chimeric Ab) heavy: QVQLQQPGAELVRPGASVKLSCKASGYTFTTYWMNWVKQRPGQGLEWIGMIDPSDSETHYNQMFKDKATLTVDKSSSTAYMQLSSLTSEDSAVYYCAVPSLYNSNYRFAYWGQGTLVTVSAASTKGPSVFPLAPSSKSTSGGTAALGCLVKDYFPEPVTVSWNSGALTSGVHTFPAVLQSSGLYSLSSVVTVPSSSLGTQTYICNVNHKPSNTKVDKKVEPKSCDKTHTCPPCPAPEAAGGPSVFLFPPKPKDTLMISRTPEVTCVVVDVSHEDPEVKFNWYVDGVEVHNAKTKPREEQYNSTYRVVSVLTVLHQDWLNGKEYKCKVSNKALGAPIEKTISKAKGQPREPQVYTLPPSREEMTKNQVSLTCLVKGFYPSDIAVEWESNGQPENNYKTTPPVLDSDGSFFLYSKLTVDKSRWQQGNVFSCSVMHEALHNHYTQKSLSLSPGK light: not shown | no binding (tested: 100 nM) | no binding (tested: 100 nM) | 740 | 680 | no binding (tested: 20 nM) | 1260 | 0.00377 | 2.98e+06 | 1620 | 0.00531 | 3.27e+06 | no binding (tested: 20 nM) | 170 | 1200
2 | 42F5H2-hIgG1 LALAPG (antibody, also called 42F5H2 chimeric Ab) heavy: QVQLQQPGAELVRPGASVKLSCKASGYTFTSYWMNWVKQRPGQGLEWIGMIDPSDSETHHNQMFKDKATLTVDKSSSTAYMQLSSLTSEDSAVYYCAKWLPPYAMDYWGQGTSVTVSSASTKGPSVFPLAPSSKSTSGGTAALGCLVKDYFPEPVTVSWNSGALTSGVHTFPAVLQSSGLYSLSSVVTVPSSSLGTQTYICNVNHKPSNTKVDKKVEPKSCDKTHTCPPCPAPEAAGGPSVFLFPPKPKDTLMISRTPEVTCVVVDVSHEDPEVKFNWYVDGVEVHNAKTKPREEQYNSTYRVVSVLTVLHQDWLNGKEYKCKVSNKALGAPIEKTISKAKGQPREPQVYTLPPSREEMTKNQVSLTCLVKGFYPSDIAVEWESNGQPENNYKTTPPVLDSDGSFFLYSKLTVDKSRWQQGNVFSCSVMHEALHNHYTQKSLSLSPGK light: not shown | no binding (tested: 100 nM) | no binding (tested: 100 nM) | 500 | 470 | no binding (tested: 20 nM) | 303 | 0.00139 | 4.59e+06 | 226 | 0.000873 | 3.86e+06 | no binding (tested: 20 nM) | 110 | 420
3 | 23H7E4-hIgG1 LALAPG (antibody, also called 23H7E4 chimeric Ab) heavy: QVQLQQPGAELVRPGASVKLSCKASGYTFTSYWLNWVKQRPGQGLEWIGMIDPSDSETHYNQVFKDKATLTVDKSSTTAYMQLSSLTSEDSAVYYCARWMVTKKTFDYWGQGTTLTVSSASTKGPSVFPLAPSSKSTSGGTAALGCLVKDYFPEPVTVSWNSGALTSGVHTFPAVLQSSGLYSLSSVVTVPSSSLGTQTYICNVNHKPSNTKVDKKVEPKSCDKTHTCPPCPAPEAAGGPSVFLFPPKPKDTLMISRTPEVTCVVVDVSHEDPEVKFNWYVDGVEVHNAKTKPREEQYNSTYRVVSVLTVLHQDWLNGKEYKCKVSNKALGAPIEKTISKAKGQPREPQVYTLPPSREEMTKNQVSLTCLVKGFYPSDIAVEWESNGQPENNYKTTPPVLDSDGSFFLYSKLTVDKSRWQQGNVFSCSVMHEALHNHYTQKSLSLSPGK light: DIVLTQSPASLAVSLGQRATISCRASESVEYYGPSLMQWYQQKPGQPPKLLIYAASNVESGVPARFSGSGSGTDFSLNIHPVEEDDIAMYFCQQSRKVPYTFGGGAKLEIKRTVAAPSVFIFPPSDEQLKSGTASVVCLLNNFYPREAKVQWKVDNALQSGNSQESVTEQDSKDSTYSLSSTLTLSKADYEKHKVYACEVTHQGLSSPVTKSFNRGEC | no binding (tested: 100 nM) | no binding (tested: 100 nM) | 770 | 800 | no binding (tested: 20 nM) | 3810 | 0.0107 | 2.81e+06 | 2450 | 0.00772 | 3.16e+06 | no binding (tested: 20 nM) | 130 | 440
4 | 91A11D11-hIgG1 LALAPG (antibody, also called 91A11D11 chimeric Ab) heavy: QVQLQQPGAELVRPGTSVKLSCKASGYTFTSYWMNWVKQRPGQGLEWIGMIDPSDSETHYNQMFKDKATLTVDESSSTAYMQLSSLTSEDSAVYFCARWTLVVAHFFDYWGQGTTLTVSSASTKGPSVFPLAPSSKSTSGGTAALGCLVKDYFPEPVTVSWNSGALTSGVHTFPAVLQSSGLYSLSSVVTVPSSSLGTQTYICNVNHKPSNTKVDKKVEPKSCDKTHTCPPCPAPEAAGGPSVFLFPPKPKDTLMISRTPEVTCVVVDVSHEDPEVKFNWYVDGVEVHNAKTKPREEQYNSTYRVVSVLTVLHQDWLNGKEYKCKVSNKALGAPIEKTISKAKGQPREPQVYTLPPSREEMTKNQVSLTCLVKGFYPSDIAVEWESNGQPENNYKTTPPVLDSDGSFFLYSKLTVDKSRWQQGNVFSCSVMHEALHNHYTQKSLSLSPGK light: DIVLTQSPASLAVSLGQRATISCRASETVEYYGPSLLQWYQQKPGQPPKLLIYGASNVESGVPARFSGSGSGTDFSLNIHPVEEDDVAMYFCQQSRKVPYTFGGGTKLEIKRTVAAPSVFIFPPSDEQLKSGTASVVCLLNNFYPREAKVQWKVDNALQSGNSQESVTEQDSKDSTYSLSSTLTLSKADYEKHKVYACEVTHQGLSSPVTKSFNRGEC | no binding (tested: 100 nM) | no binding (tested: 100 nM) | 460 | 450 | no binding (tested: 20 nM) | 223 | 0.00142 | 6.93e+06 | 138 | 0.00102 | 7.39e+06 | no binding (tested: 20 nM) | 120 | 410
